Experiment [1] addresses T1, thermolysin-cleaved EBOV GP on Jurkat-GP cells (cleaved GP) (Zaire ebolavirus, Makona (GP1 core …, strain)).
T1 chain 1: not shown
T1 chain 2: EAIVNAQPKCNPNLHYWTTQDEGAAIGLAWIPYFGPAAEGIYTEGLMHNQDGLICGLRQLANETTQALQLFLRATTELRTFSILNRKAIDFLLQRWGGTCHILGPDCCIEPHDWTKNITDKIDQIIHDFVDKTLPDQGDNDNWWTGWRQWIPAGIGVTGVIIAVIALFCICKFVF

The target in experiment [2] is EBOV GP ectodomain residues 1-636 (GPec) (Zaire ebolavirus, strain  …, UniProt Q05320).

B1: 15.0.c778 (antibody, V domains shown)
VH: QVQLHESGPGVVKVSETLSLTCTLSGGSINGNSWSWIRQTAGKGLEWIGRVYTSGSPNYNPSLKSRLTMSIVTSKNQFSLTLRSVTAADTAIYYCARDFVVIDPTRVVDDYDAFDVWGRGTVVTVSS
VL: DIQLTQSPSILSASVGDRVTITCRASQSVSRYLAWYQQKPGNAPKLLIYKVSTLQSGVPSRFSGSASGTEFTLTINSLQPDDFATYYCHQYNGYLYTFGQGTKVDVK
As to B1, the binding result in experiment [1] is “binds”.

B2: 5.6.c2647 (antibody, V domains shown)
VH: QDQLVQSGAEVKKPGASVKVSCKASGYSFTGHYIHWVRRAPGRGLEWMGWINPDSGGTNYAQKFQGWVSMTRDTSISTAYMELSSLKSDDTAVYYCARGITMICDLWGQGTQVTVSS
VL: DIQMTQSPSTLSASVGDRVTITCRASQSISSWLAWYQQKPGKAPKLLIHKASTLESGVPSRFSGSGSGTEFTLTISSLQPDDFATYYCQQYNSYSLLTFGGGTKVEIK
On to B2, for which the binding result in experiment [1] is on record as “binds”.

B3: 15.0.c779 (antibody, V domains shown)
VH: EVQMVESGGGLVKPGGSLRLSCAASGFIFSNAWMSWVRQAPGKGLEWVGRIKGKTDGGTTDYAAPVKGRVTISRDDSKNTLFLQMNSLKTEDTAVYFCTADVLPAATRGVYYYYYYMDVWGKGTTVTVSS
VL: QSALTQPASVSGSPGQSITISCTGTSSDVGGYNYVSWYQQHPGKAPKLMIYDVSKRPSGVSNRFSGSKSGNTASLTISGLQAEDEADYYCCSYTGRSTVVFGGGTTLTVL
Regarding B3, in experiment [1], the binding result is on record as “binds”.

B4: 15.0.c780 (antibody, V domains shown)
VH: EVQLVESGGGLVKPGGSLRLSCAASGFTFSNAWMSWVRQAPGKGLEWVGRIKGKTDGGTTDYAAPVRGRFTISRDDSKNMLYLQMNSLKTEDTAIYYCTADVIPAATRGVYYYYYYMDVWGEGTTVAVSS
VL: QSALTQPASVSGSPGQSITISCTGTSSDVGGYNYVSWYQQHPGKAPKLMIYDVSKRPSGLSNRFSGSKSGNTASLTISGLQAEDEADYYCCSYARSSTVVFGGGTKVTVL
With B4, the binding result in experiment [1] is “binds”.

B5: 5.6.c3010 (antibody, V domains shown)
VH: EVQLVESGGGLVQPGGSLRLSCAASGLTVSSNYMNWVRQAPGKGLEWVSVIYSGGRTYYADSVKGRFTISRDISKNTVYLEMNSLRADDTAVYYCARIYFFYNGMDVWGQGTTVTVSP
VL: EILLTQSPGTLSLSPGERATLSCRASQSVSSNYLAWFQQKPGQAPRLLIYGASSRATGIPDRFSGSGSGTDFTLTISRLEPEDFALYYCQQYGSSPPWTFGQGTKVEMK
In the case of B5, the binding result in experiment [1] is listed as “binds”.

B6: 15.0.c912 (antibody, V domains shown)
VH: QVQLQESGPGLVKPSQTLSLTCTVSGGSISSGGYYWNWVRQHPGKGLEWIGYISYSGSTFYSGSTYYNPSLKSRITISLDTSKNQFSLNLSSVTAADTAVYYCARDRGDPGGYYNYGMDVWGQGTTVTVSS
VL: QSVLTQPPSASGTPGQRVTISCSGSSSNIGSHYVYWYQQLSGTAPKLLIYRNNERPSGVPDRFSGSKSGTSASLAISGLRSEDEADYYCATWDDSQRVFGGGTKLTVL
Consider B6, for which the binding result in experiment [1] was “binds”.

B7: 15.0.c865 (antibody, V domains shown)
VH: EVQLVESGGSVVRPGGSLRLSCAASVFTFENYGMSWVRQTPGKGLEWVSSINWNGANTGYADSVKGRFTVSRDNAKNSLYLQMNSLRAEDTALYYCARHRYDSSGQWYFDYWGQGTLVTVSS
VL: SYELTQPPSVSVSPGQTARITCSGDALPKKYAYWYQQKPGQAPVLVIYEDSKRPSGIPERFSGSRSGTMATLTISGAQVADEADYYCYSPDSSGNHRIFGTGTKVTVL
In the case of B7, in experiment [1], the binding result is recorded as “binds”.

B8: 9.1.c1426 (antibody, V domains shown)
VH: QVQLQESGPGLVKPSQTLSLTCTVSGGSISSGDYYWSWIRQPPGKGLEWIGYIYYSGSTYYNPSLKSRVTISVDTSKNQFSLKLSSVTAADTAVYYCARGYSSGWYLAYFQHWGQGTLVTVSS
VL: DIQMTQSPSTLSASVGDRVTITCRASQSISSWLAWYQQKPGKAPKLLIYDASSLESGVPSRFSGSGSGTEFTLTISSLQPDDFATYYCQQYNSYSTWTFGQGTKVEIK
Regarding B8, in experiment [1], the binding result is “binds”.

B9: 9.1.c1410 (antibody, V domains shown)
VH: EVQLVESGGGLVKPGGSLRLSCAASGFTFSSYSMNWVRQAPGKGLEWVSSISSSSSYIYYADSVKGRFTISRDNAKNSLYLQMNSLRAEDTAVYYCARDLSEYQLLLSYFDYWGQGTLVTVSS
VL: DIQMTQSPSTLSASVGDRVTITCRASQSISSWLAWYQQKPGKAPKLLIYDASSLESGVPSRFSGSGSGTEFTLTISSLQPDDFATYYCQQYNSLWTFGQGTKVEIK
For the molecule B9, the binding result in experiment [1] was “binds”.

B10: 15.0.c819 (antibody, V domains shown)
VH: QVQLVESGGGVVQPGRSLRLSCAASGFTFSSYAMHWVRQAPGKGLEWVAVISYDGSNKYYADSVKGRFTISRDNSKNTLYLQMNSLRAEDTAVYYCARDLLWFGELLFREYYMDVWGKGTTVTVSS
VL: not shown
B10: in experiment [1], the binding result is listed as “binds”.

B11: 15.0.c800 (antibody, V domains shown)
VH: EDQLLESGGGLVQPGGSLRLSCAVSGFTFSGYDLSWVRQAPGKGLEWVSIFSGSGGRKYYADSVKGRFTLSIDNSKNTLYLQMNSLRAEDTAVYYCAGDSSGYNNERMYYTYYMDVWGKGTTVTVSS
VL: DIQMTQSPSSVSASVGDRVIITCRASQGISSWLAWYQQKPGKAPKLLIYAASSLQSGVPSRFSGSGSGTDFTLTISSLQPEDFATYYCQQANSFPLSFGGGTKVEIK
Consider B11, for which, in experiment [1], the binding result was “binds”.

B12: 5.6.c2617 (antibody, V domains shown)
VH: EVQLVESGGGLVQPGGSLRLSCVASGFTFSSYEMDWVRQAPGKGLEWVSYIGSSGSTIYYADSVKGRFTISRDNAKNSLYLQMNSLRAEDTAVYYCARDTETTGLYYYGMDVWGQGTTVTVSA
VL: DIQMTQSPSSVSASVGDRVTITCRASQGISRWLAWYQQKPGKAPKLLIYGTSSLQSGVPSRFSGSGSGTDFTLTISSLQPEDFATYYCQQANSFPFTFGPGTRVDIK
As for B12, the binding result in experiment [2] was “binds”.

B13: 15.0.c830 (antibody, V domains shown)
VH: EEQLLESGGGLVQPGGSLRLSCTVSGFTFSGYDMSWVRQAPGKGLEWVSLLSASGGGKYYADSVRGRFTISRDNSKNTMYLEMNSLRADDTAIYYCATDSSGYNYERLYYTYYMDVWGRGTTVSVSS
VL: DIQMTQSPSSVSASVGDRVTITCRASQGISVWLAWYQQKPGKAPKLLIHAASSLQSGVPSRFSGSGSGTDFSLTISSLQPEDFATYYCQQANSFPLTFGGGTKVEIK
As to B13, in experiment [1], the binding result is recorded as “binds”.

B14: 15.0.c792 (antibody, V domains shown)
VH: EVQLVESGGGLVQPGGSLRLSCAASGFTFSSYSMNWVRQAPGKGLEWVSYISSSSSTIYYADSVKGRFTISRDNAKNSLYLQMNSLRAEDTAVYYCARESPTYYDFWSGYSDYWGQGTLVTVSS
VL: NFMLTQPHSVSESPGKTVTISCTRSSGSIASNYVQWYQQRPGSSPTTVIYEDNQRPSGVPDRFSGSIDSSSNSASLTISGLKTEDEADYYCQSYDSSNRVFGGGTKLTVL
For B14, the binding result in experiment [1] is recorded as “binds”.

B15: 5.6.c2875 (antibody, V domains shown)
VH: EVQLVESGGGVVQPGGSLRLSCAASGFTLRNFDMHWVRQVTGKGLEWVSGIGTAGDTYYPDSVKGRFTISRENAKNSLYLQMNSLRAEDTAVYYCARARWLQFDNWGQGALVTVSS
VL: EIVLTQSPGTLSLSPGERATLSCKASQRVTSNFLAWYQQTPGQAPRLLIYSASSRATGIPDRFSGSGSGTDFTLTISRLEPEDFAVYYCQQYRSSRYTFGQGTKLEIK
For the molecule B15, the binding result in experiment [2] was “binds”.

B16: 5.6.c3387 (antibody, V domains shown)
VH: QLQLQESGPRLVKPSETLSLTCTVSGGSINRNSYYWGWIRQPPGKGLEWIGTIYYSGSPYYNPSLKSRVTISVDTSKNQFSLKLDSVTAADTALYFCASLWGWNDVGWFDSWGQGTLVTVSS
VL: EIVLTQSPGTLSLSPGERATLSCRASQSVSSGYLAWYQQKPGQAPRLLIYGASIRAAGIPDRFSGSGSGTDFTLTISRLEPEDFAVYFCQQYGTSPLTFGPGTTVDIK
For the molecule B16, the binding result in experiment [1] is listed as “binds”.

B17: 15.0.c846 (antibody, V domains shown)
VH: EVQLVESGGGLVQPGGSLRLSCAASGFTFSSYWMSWVRQAPGKGLEWVANIKQDGSEKYYVDSVKGRFTISRDNAKNSLYLQMNSLRAEDTAVYYCARTRDSSSSFYYYYYMDVWGKGTTVTVSS
VL: not shown
Regarding B17, the binding result in experiment [1] was “binds”.

B18: 5.6.c4172 (antibody, V domains shown)
VH: QVQLQESGPGLVKPSGTLSLTCAVSGGSISSHYWWSWVRQSPGKGLEWLGEIYQIGSTNYNPSLKSRVSMSVDESKNQFSLSLTSVTAADTAVYYCARDQGHWNPGKGAFDIWGQGALVTVSS
VL: QSVLTQPPSVSAAPGQRVTISCSGSNSNIGKNFVSWYQQFPGTAPKLLIYDNDKRPSGIPDRFSGSKSGTSATLGITGLQTGDEADYFCATWDTTLSAWVFGGGTKVTVL
In the case of B18, the binding result in experiment [1] was “binds”.

B19: 15.0.c942 (antibody, V domains shown)
VH: EVQLVESGGGVVRPGGSLRLTCAASGFIFENYGMSWVRQAPGKGLEWVSALNWNGVNTYYSDSVKGRFTISRDNAKNSLYLQMNSLSAEDTAFYYCAVHYYDSSGIYYLDDWGQGTLVTVSS
VL: QSVLTQPPSVSAAPGQKVSISCSGSSSNIGKNYVYWYQHVPGAAPKLLIYENDKRPSGIPDRFSGSKSGTSATLDITGLQTGDEAEYYCATWQSGLSAHVVFGGGTKLTVL
For B19, the binding result in experiment [1] is “binds”.

B20: 15.0.c835 (antibody, V domains shown)
VH: not shown
VL: DIQLTQSPSFLSASVGDRVTITCRASQGISSYLAWYQQKPGKAPKLLIYAASTLQSGVPSRFSGSGSGTEFTLTISSLQPEDFATYYCQQLNSYGYTFGQGTKLEIK
As to B20, in experiment [1], the binding result is reported as “binds”.

B21: 5.6.c3169 (antibody, V domains shown)
VH: QVQLVQSGTEVKKPGASVRVSCKSSGYTFTNYGINWVRQAPGQGLEWLGWISTYNDNINYAQKFQGRVTMTTDTSTSTAYMELRSLRSDDTAIYYCAKDSSAYWDLLFYGMDVWGQGTTVTVSS
VL: DIQLTQSPSFVSASVGDRVTITCRASQGISSSLAWYQQKPGKAPNLLIYAASALQSGVPSRFSGSGSGTDFTLTISSLQPEDFATYFCQQLNSYPYTFGQGTKLEIK
Turning to B21, the binding result in experiment [2] is listed as “binds”.

B22: 5.6.c2902 (antibody, V domains shown)
VH: QVQLQESGPGLVKPSQTLSLTCTVSGASINSRDSYWSWIRQPPGKGLEWIGYIYYSGSTYSNPSLKSRVTMSVDTSKNQISLQLSSVTAADTAVYYCARVEGNEILFSLWYFDIWGRGTPVSVSS
VL: QSVLTQPPSVSAAPGQKVTISCSGSSSNIGNNYVSWYQQLPGTAPKLLIYDNNKRPSGIPDRFSGSKSGTSATLGITGLQTGDEADYYCGSWDSSLSAGHWVFGGGTKLTVL
As for B22, the binding result in experiment [2] is reported as “binds”.

For the origin of these results see PMC6908968 (Cell, 2019).
